Source: PMC8113585 (2020)

Biological target: SARS-CoV-2 full-length nucleocapsid (N) protein (N-FL: 1-419) (SARS-CoV-2, UniProt P0DTC9 1-419)
Assay: ELISA

B1: human monoclonal antibody nCoV396, recombinant IgG1 (antibody, V domains shown)
VH: QVQLVESGGGVVQPGRSLRLSCAASGFTFSSYIMHWVRQAPGKGLEWVAVISYDGSNEAYADSVKGRFTISRDNSKNTLYLQMSSLRAEDTGVYYCARETGDYSSSWYDSWGRGTLVTVSS
VL: QLVLTQSPSASASLGASVKLTCTLSSGHSNYAIAWHQQQPEKGPRYLMKVNSDGSHTKGDGIPDRFSGSSSGAERYLTISSLQSEDEADYYCQTWGTGIQVFGGGTKLTVL
Binder B1 has an EC50 of 3.2 ng/mL.
